The target in one assay is T1, PROCR (human, UniProt Q9UNN8 18-210).
T1 construct: Recombinant human protein in ELISA and BLI
T1 sequence (looked up): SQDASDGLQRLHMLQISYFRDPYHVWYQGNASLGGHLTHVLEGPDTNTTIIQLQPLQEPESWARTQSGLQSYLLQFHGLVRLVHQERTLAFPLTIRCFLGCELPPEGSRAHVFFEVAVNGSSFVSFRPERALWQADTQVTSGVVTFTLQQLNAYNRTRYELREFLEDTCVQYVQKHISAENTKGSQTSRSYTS
The experiment in a line: ELISA, plate-coated recombinant human protein, nanobody-Fc. The method, then: (§1) Recombinant human protein was diluted in PBS to a final concentration of 5 μg/mL and was immobilized on 96-well flat bottom MaxiSorp plates (Thermo Fisher Scientific) and placed at 4° C. overnight. Plates were washed three times with 225 μL ELISA wash buffer (PBS with 0.05% Tween 20) and 200 μL ELISA blocking buffer (PBS with 1% Casein) was added to the well. Plates were incubated with shaking for 2 hours at room temperature. ELISA blocking buffer was removed from the wells and appropriate dilutions of recombinant nanobodies in 100 μL ELISA blocking buffer was added to each well. Plates were incubated with shaking for 2 hours at room temperature. Plates were washed 3 times with 225 μL ELISA wash buffer and 1:5000 goat anti-human IgG HRP (Millipore Sigma) in 100 μL ELISA blocking buffer was added to the wells. Plates were incubated with shaking for 1 hour at room temperature. Plates were washed 6 times with 225 μL ELISA wash buffer. 50 μL TMB substrate (BD Biosciences) was added to the wells and plates were incubated for 15 minutes in the dark at room temperature. 50 μL 1 M sulfuric acid was added to the wells and absorbance at 450 nm was measured in a Synergy HTX Multi-Mode Microplate Reader (BioTek).

The target of another assay is T2, CD3E (human, UniProt P07766 23-126).
T2 construct: Recombinant human protein in ELISA
The description is as above. The method, then: as §1

In a further assay the target is T3, CD302 (human, UniProt Q8IX05 23-168, limits assumed).
T3 construct: Recombinant human protein in ELISA
T3 sequence (looked up): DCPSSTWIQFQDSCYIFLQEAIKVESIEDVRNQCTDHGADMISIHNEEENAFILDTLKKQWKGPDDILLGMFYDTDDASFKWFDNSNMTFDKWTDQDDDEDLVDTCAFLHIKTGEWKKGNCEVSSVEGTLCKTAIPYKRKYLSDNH
The description is as above. The method, then:
as §1

The target in assay [1] is T4, TNFRSF17 (recombinant human protein) (human, UniProt Q02223 1-54).
T4 construct: Recombinant human protein immobilized at 5 ug/mL for ELISA
T4 sequence (looked up): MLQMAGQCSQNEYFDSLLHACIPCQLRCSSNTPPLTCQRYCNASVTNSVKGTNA
The experiment in a line: ELISA, recombinant human protein coated, nanobody-Fc titrated, anti-human IgG HRP. The method, then: as §1

The target of another assay is REAP Off-Targets. The experiment in a line: REAP, nanobody-Fc on yeast-displayed human antigen library.
For assay [2], the target named is T5, TNFSF18 (recombinant human protein) (human, UniProt Q9UNG2 52-177, limits assumed).
T5 construct: Recombinant human protein immobilized at 5 ug/mL for ELISA
T5 sequence (looked up): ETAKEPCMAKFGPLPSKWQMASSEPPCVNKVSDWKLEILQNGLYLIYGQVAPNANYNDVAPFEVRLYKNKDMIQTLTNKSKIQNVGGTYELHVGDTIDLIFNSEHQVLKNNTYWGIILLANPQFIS
In words: ELISA, recombinant human protein coated, nanobody-Fc titrated, anti-human IgG HRP. The method, then:
as §1

T2 sequence (P07766 23-126 limits assumed): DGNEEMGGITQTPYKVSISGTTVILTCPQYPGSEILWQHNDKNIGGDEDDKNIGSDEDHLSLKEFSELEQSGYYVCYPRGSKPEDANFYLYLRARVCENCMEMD

B1: PROCR_Nb83 (Fc fusion)
chain: QVQLQESGGGLVQAGGSLRLSCAASGNISPTRFMGWYRQAPGKEREFVAAIDLGTTTNYADSVKGRFTISRDNAKNTVYLQMNSLKPEDTAVYYCAADWNGPWSFWYWGQGTQVTVSS
notes: Nanobody expressed and tested as Fc fusion (human IgG1); not shown: human IgG1 Fc (vector pCER243)
On to B1, for which the concentration giving a half-maximal response (EC50) with PROCR is 1.27 nM.

B2: CD3E_Nb2.77 (Fc fusion)
chain: QVQLQESGGGLVQAGGSLRLSCAASGSISPVAVMGWYRQAPGKEREFVAAINYGANTYYADSVKGRFTISRDNAKNTVYLQMNSLKPEDTAVYYCAAATYAPYQRSGKLVYWGQGTQVTVSS
notes: as for B1
Regarding B2, the EC50 with CD3E is 0.67 nM.

B3: CD3E_Nb2.73 (Fc fusion)
chain: QVQLQESGGGLVQAGGSLRLSCAASGNISDITVMGWYRQAPGKEREFVAGINYGGSTNYADSVKGRFTISRDNAKNTVYLQMNSLKPEDTAVYYCAARYRYRYSAREFHDYWGQGTQVTVSS
notes: as for B1
As to B3, the EC50 with CD3E was 0.735 nM.

B4: CD302_Nb33 (Fc fusion)
chain: QVQLQESGGGLVQAGGSLRLSCAASGTISIIFAMGWYRQAPGKEREFVAGIGRGTTTYYADSVKGRFTISRDNAKNTVYLQMNSLKPEDTAVYYCAAHVFYDNVVQRHAYWGQGTQVTVSS
notes: as for B1
In the case of B4, the EC50 with CD302 is 2.26 nM.

B5: TNFRSF17_Nb2.20 (Fc fusion)
chain: QVQLQESGGGLVQAGGSLRLSCAASGTIFSDYMGWYRQAPGKEREFVATIAVGSITYYADSVKGRFTISRDNAKNTVYLQMNSLKPEDTAVYYCAVWDASWADYAYWGQGTQVTVSS
notes: Nanobody expressed as an Fc fusion protein (fused with human IgG1) in Expi293 cells; not shown: human IgG1 Fc; nanobodies expressed as Fc fusion from vector pCER243
On to B5, for which the concentration for a half-maximal effect (EC50) in assay [1] is 1.02 nM.

B6: CD302_Nb35 (Fc fusion)
chain: QVQLQESGGGLVQAGGSLRLSCAASGTISRVFVMGWYRQAPGKERELVAGIGGGTSTYYADSVKGRFTISRDNAKNTVYLQMNSLKPEDTAVYYCAAILSDRVLFRYWGQGTQVTVSS
notes: as for B1
Turning to B6, in the assay with CD302, the EC50 is 0.654 nM.

B7: CD302_Nb31 (Fc fusion)
chain: QVQLQESGGGLVQAGGSLRLSCAASGTIFKSAGMGWYRQAPGKEREFVAGIAPGAITYYADSVKGRFTISRDNAKNTVYLQMNSLKPEDTAVYYCAALVADGRPYRYWGQGTQVTVSS
notes: as for B1
B7: the EC50 in the assay with CD302 was 1.26 nM.

B8: TNFRSF17_Nb2.21 (Fc fusion)
chain: QVQLQESGGGLVQAGGSLRLSCAASGTIFQYDYMGWYRQAPGKEREFVAAIAYGGNTNYADSVKGRFTISRDNAKNTVYLQMNSLKPEDTAVYYCAAWSWRRSRAYWGQGTQVTVSS
notes: as for B5
On to B8, for which the REAP Off-Targets (number) with REAP Off-Targets stood at 5 off-targets. Besides, the EC50 in assay [1] is 4.75 nM.

B9: TNFSF18_Nb101 (Fc fusion)
chain: QVQLQESGGGLVQAGGSLRLSCAASGYIFDDYGMGWYRQAPGKERELVATINAGANTNYADSVKGRFTISRDNAKNTVYLQMNSLKPEDTAVYYCAVYYGPYYRYLDPYLYWGQGTQVTVSS
notes: as for B5
As for B9, the EC50 in assay [2] is 22.6 nM.

B10: PROCR_Nb85 (Fc fusion)
chain: QVQLQESGGGLVQAGGSLRLSCAASGNISVLVYMGWYRQAPGKERELVAAITTGTSTYYADSVKGRFTISRDNAKNTVYLQMNSLKPEDTAVYYCAADYYGPWYHQYWGQGTQVTVSS
notes: as for B1
In the case of B10, the concentration for a half-maximal effect (EC50) with PROCR turned out to be 0.352 nM.

B11: TNFRSF17_Nb2.18 (Fc fusion)
chain: QVQLQESGGGLVQAGGSLRLSCAASGNIFRGWYMGWYRQAPGKEREFVATIASGGSTYYADSVKGRFTISRDNAKNTVYLQMNSLKPEDTAVYYCAVWDWEPGDYAYWGQGTQVTVSS
notes: as for B5
In turn, B11 gave an REAP Off-Targets (number) with REAP Off-Targets of 1 off-targets. Also, the EC50 in assay [1] came to 2.82 nM.

B12: PROCR_Nb89 (Fc fusion)
chain: QVQLQESGGGLVQAGGSLRLSCAASGTIFRDDNMGWYRQAPGKEREFVAAIGYGSTTNYADSVKGRFTISRDNAKNTVYLQMNSLKPEDTAVYYCAVRNTYWNLLQYWGQGTQVTVSS
notes: as for B1
In the case of B12, in the assay with PROCR, the EC50 was 0.565 nM.

B13: CD3E_Nb2.79 (Fc fusion)
chain: QVQLQESGGGLVQAGGSLRLSCAASGTISPWRVMGWYRQAPGKEREFVAGITPGTTTYYADSVKGRFTISRDNAKNTVYLQMNSLKPEDTAVYYCAVSAGASTPARYRLVYWGQGTQVTVSS
notes: as for B1
For the molecule B13, the EC50 in the assay with CD3E is 0.579 nM.

B14: TNFSF18_Nb94 (Fc fusion)
chain: QVQLQESGGGLVQAGGSLRLSCAASGNISLYYDMGWYRQAPGKERELVAAIDPGTITYYADSVKGRFTISRDNAKNTVYLQMNSLKPEDTAVYYCAVVIPDYVYRYVVGTVDYGYWGQGTQVTVSS
notes: as for B5
B14 gave an REAP Off-Targets (number) in the assay with REAP Off-Targets of 1 off-targets. The EC50 in assay [2] amounted to 71.8 nM.

B15: CD302_Nb32 (Fc fusion)
chain: QVQLQESGGGLVQAGGSLRLSCAASGTIFPDSSMGWYRQAPGKEREFVAGITTGANTYYADSVKGRFTISRDNAKNTVYLQMNSLKPEDTAVYYCAAYHVDRAVFRYWGQGTQVTVSS
notes: as for B1
For B15, the EC50 with CD302 stood at 0.49 nM.

B16: TNFSF18_Nb93 (Fc fusion)
chain: QVQLQESGGGLVQAGGSLRLSCAASGNISDPPFMGWYRQAPGKERELVAGISWGASTYYADSVKGRFTISRDNAKNTVYLQMNSLKPEDTAVYYCAAVTTDFGAYPFAYWGQGTQVTVSS
notes: as for B5
For the molecule B16, the concentration giving a half-maximal response (EC50) in assay [2] was 1.59 nM.

B17: CD302_Nb28 (Fc fusion)
chain: QVQLQESGGGLVQAGGSLRLSCAASGSISGVSGMGWYRQAPGKEREFVAGITTGTSTYYADSVKGRFTISRDNAKNTVYLQMNSLKPEDTAVYYCAAYANYVPSSRLYLRYWGQGTQVTVSS
notes: as for B1
Regarding B17, in the assay with CD302, the concentration giving a half-maximal response (EC50) was 0.684 nM.

B18: CD3E_Nb2.80 (Fc fusion)
chain: QVQLQESGGGLVQAGGSLRLSCAASGNISRRYVMGWYRQAPGKEREFVAGISGGSSTYYADSVKGRFTISRDNAKNTVYLQMNSLKPEDTAVYYCAVLISGNTPNAISHYYWGQGTQVTVSS
notes: as for B1
On to B18, for which, in the assay with CD3E, the concentration giving a half-maximal response (EC50) stood at 17.9 nM.

B19: CD3E_Nb2.76 (Fc fusion)
chain: QVQLQESGGGLVQAGGSLRLSCAASGNIFGNVVMGWYRQAPGKEREFVAGINNGGSTNYADSVKGRFTISRDNAKNTVYLQMNSLKPEDTAVYYCAVYYYYLTYHLYWGQGTQVTVSS
notes: as for B1
On to B19, for which, in the assay with CD3E, the EC50 was 16.1 nM.

B20: CD302_Nb26 (Fc fusion)
chain: QVQLQESGGGLVQAGGSLRLSCAASGNISFIGAMGWYRQAPGKEREFVAGINVGTNTYYADSVKGRFTISRDNAKNTVYLQMNSLKPEDTAVYYCAAYVFVSRIDLRYLVYWGQGTQVTVSS
notes: as for B1
On to B20, for which, in the assay with CD302, the concentration giving a half-maximal response (EC50) was 8.5 nM.

B21: TNFRSF17_Nb2.23 (Fc fusion)
chain: QVQLQESGGGLVQAGGSLRLSCAASGYISRYDYMGWYRQAPGKERELVAAINSGASTYYADSVKGRFTISRDNAKNTVYLQMNSLKPEDTAVYYCAVRSWGLDDYAYWGQGTQVTVSS
notes: as for B5
Consider B21, for which the REAP Off-Targets (number) with REAP Off-Targets worked out at 2 off-targets. The EC50 in assay [1] was found to be 7.57 nM.

B22: CD302_Nb30 (Fc fusion)
chain: QVQLQESGGGLVQAGGSLRLSCAASGSISLATGMGWYRQAPGKEREFVAGISVGTSTYYADSVKGRFTISRDNAKNTVYLQMNSLKPEDTAVYYCAAIAWHPSGARSYLRYWGQGTQVTVSS
notes: as for B1
Take B22: in the assay with CD302, the concentration giving a half-maximal response (EC50) was found to be 2.21 nM.

B23: PROCR_Nb90 (Fc fusion)
chain: QVQLQESGGGLVQAGGSLRLSCAASGTISGGYNMGWYRQAPGKEREFVATIGDGSSTYYADSVKGRFTISRDNAKNTVYLQMNSLKPEDTAVYYCAAFNSAQYWYESPFRYWGQGTQVTVSS
notes: as for B1
For the molecule B23, in the assay with PROCR, the EC50 was determined as 1.74 nM.

B24: CD3E_Nb2.74 (Fc fusion)
chain: QVQLQESGGGLVQAGGSLRLSCAASGTIFYASVMGWYRQAPGKEREFVAGITPGGSTNYADSVKGRFTISRDNAKNTVYLQMNSLKPEDTAVYYCAVYYRYSEGRIGGHAYWGQGTQVTVSS
notes: as for B1
As for B24, in the assay with CD3E, the concentration for a half-maximal effect (EC50) amounted to 1.2 nM.

B25: TNFRSF17_Nb2.19 (Fc fusion)
chain: QVQLQESGGGLVQAGGSLRLSCAASGTISHPTYMGWYRQAPGKEREFVAGISDGTNTYYADSVKGRFTISRDNAKNTVYLQMNSLKPEDTAVYYCAAITSWDYGYGYWGQGTQVTVSS
notes: as for B5
On to B25, for which, in the assay with REAP Off-Targets, the REAP Off-Targets (number) is 3 off-targets. The EC50 in assay [1] came out at 2.84 nM.

Source of the values: US20230416942A1 (YALE UNIVERSITY, published 2023).
